{"source": "patent US20020037516", "key": {"[1]": {"system": "ErmE erythromycin resistance methyltransferase", "conditions": "Km of methylation; 10 mM MgCl2, 100 mM NH4Cl, pH 7.8, 30 min 25 C"}, "[2]": {"target": "TSR thiostrepton resistance methyltransferase (tsr) (Streptomyces azureus) (UniProt P18644)", "conditions": "Km of methylation; 5 mM MgCl2, 25 mM NH4Cl, pH 7.5, 25 C"}, "Ribosomal protein L11": {"system": "Ribosomal protein L11", "assay": "inhibition", "conditions": "affinity from inhibition of TSR methylation; 5 mM MgCl2, 25 mM NH4Cl, pH 7.5, 25 C"}, "[3]": {"target": "TSR thiostrepton resistance methyltransferase (tsr) (Streptomyces azureus) (UniProt P18644)", "conditions": "Km +/-3 nM, 15 experiments; 5 mM MgCl2, 25 C"}}, "note": "Where two headings read alike, the source gives them in different places.", "data": [{"substance": "23S rRNA (Erm substrate)", "values": [{"measurement": "activity", "setting": "[1]", "value": 23, "unit": "nM"}]}, {"substance": "E. coli mGAR 60-mer", "values": [{"measurement": "activity", "setting": "[2]", "value": 50, "unit": "nM"}, {"measurement": "Ki", "setting": "Ribosomal protein L11", "value": 84, "unit": "nM"}]}, {"substance": "GAR 58-mer RNA", "values": [{"measurement": "activity", "setting": "[3]", "value": 47, "unit": "nM"}]}]}
